Test results: publication PMC5014452

Assays:
Test in all cases: EMSA
[1] = target: recombinant human integrin α6β4 (Homo sapiens, UniProt P23229;P16144 24-1050;28-710)
[2] = target: recombinant human integrin α6β1 (Homo sapiens, UniProt P23229;P05556 24-1050;21-728)
[3] = target: recombinant murine integrin α6β4 (Mus musculus, UniProt Q61739;A2A863 24-1011;29-712)

Measured: binding result

Sequence of recombinant murine integrin α6β4 (Q61739 24-1011, chain 1 of 2): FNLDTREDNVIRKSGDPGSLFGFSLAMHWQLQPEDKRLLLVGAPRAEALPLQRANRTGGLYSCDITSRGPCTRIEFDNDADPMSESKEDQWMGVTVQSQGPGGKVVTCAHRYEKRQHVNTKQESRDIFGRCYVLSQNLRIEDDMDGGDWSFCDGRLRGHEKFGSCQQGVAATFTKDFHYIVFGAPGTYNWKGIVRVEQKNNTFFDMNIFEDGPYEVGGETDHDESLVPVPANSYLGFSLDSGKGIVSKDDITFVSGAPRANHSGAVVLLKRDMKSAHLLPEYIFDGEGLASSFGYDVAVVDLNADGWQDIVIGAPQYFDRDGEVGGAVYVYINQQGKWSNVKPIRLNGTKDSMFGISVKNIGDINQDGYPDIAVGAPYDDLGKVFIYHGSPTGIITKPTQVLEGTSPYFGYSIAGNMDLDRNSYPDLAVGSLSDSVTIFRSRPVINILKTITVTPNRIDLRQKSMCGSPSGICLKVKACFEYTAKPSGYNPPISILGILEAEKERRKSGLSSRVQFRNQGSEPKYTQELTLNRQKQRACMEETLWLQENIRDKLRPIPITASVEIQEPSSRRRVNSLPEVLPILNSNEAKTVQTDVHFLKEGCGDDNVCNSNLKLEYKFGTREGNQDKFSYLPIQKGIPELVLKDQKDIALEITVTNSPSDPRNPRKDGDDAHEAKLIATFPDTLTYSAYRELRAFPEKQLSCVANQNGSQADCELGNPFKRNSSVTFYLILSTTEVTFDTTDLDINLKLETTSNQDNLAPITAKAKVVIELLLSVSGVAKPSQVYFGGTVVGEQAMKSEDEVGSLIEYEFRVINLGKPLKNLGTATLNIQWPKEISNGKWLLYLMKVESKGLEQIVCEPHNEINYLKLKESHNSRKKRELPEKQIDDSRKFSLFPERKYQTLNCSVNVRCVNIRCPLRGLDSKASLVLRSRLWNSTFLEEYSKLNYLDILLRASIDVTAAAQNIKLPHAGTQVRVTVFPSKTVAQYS
Sequence of recombinant murine integrin α6β4 (A2A863 29-712, chain 2 of 2): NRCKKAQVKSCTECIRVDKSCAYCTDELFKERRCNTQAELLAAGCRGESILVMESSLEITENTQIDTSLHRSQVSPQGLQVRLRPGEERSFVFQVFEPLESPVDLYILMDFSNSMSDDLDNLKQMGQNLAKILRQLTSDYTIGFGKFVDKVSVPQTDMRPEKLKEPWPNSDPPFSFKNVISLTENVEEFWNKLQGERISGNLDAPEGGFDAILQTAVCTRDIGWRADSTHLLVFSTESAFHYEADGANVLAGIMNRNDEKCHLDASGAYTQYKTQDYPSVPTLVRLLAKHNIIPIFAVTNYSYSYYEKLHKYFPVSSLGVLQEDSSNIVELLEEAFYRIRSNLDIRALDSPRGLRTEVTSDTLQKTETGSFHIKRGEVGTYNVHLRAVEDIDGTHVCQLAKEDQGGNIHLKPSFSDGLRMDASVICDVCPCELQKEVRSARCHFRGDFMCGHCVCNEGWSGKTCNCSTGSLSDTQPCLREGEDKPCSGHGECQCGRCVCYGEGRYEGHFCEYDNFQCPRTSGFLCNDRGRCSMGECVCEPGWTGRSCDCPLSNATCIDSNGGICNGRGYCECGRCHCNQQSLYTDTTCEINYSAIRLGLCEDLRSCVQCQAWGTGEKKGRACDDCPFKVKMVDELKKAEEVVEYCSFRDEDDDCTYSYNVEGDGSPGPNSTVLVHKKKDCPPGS
Sequence of recombinant human integrin α6β1 (P23229 24-1050, chain 1 of 2): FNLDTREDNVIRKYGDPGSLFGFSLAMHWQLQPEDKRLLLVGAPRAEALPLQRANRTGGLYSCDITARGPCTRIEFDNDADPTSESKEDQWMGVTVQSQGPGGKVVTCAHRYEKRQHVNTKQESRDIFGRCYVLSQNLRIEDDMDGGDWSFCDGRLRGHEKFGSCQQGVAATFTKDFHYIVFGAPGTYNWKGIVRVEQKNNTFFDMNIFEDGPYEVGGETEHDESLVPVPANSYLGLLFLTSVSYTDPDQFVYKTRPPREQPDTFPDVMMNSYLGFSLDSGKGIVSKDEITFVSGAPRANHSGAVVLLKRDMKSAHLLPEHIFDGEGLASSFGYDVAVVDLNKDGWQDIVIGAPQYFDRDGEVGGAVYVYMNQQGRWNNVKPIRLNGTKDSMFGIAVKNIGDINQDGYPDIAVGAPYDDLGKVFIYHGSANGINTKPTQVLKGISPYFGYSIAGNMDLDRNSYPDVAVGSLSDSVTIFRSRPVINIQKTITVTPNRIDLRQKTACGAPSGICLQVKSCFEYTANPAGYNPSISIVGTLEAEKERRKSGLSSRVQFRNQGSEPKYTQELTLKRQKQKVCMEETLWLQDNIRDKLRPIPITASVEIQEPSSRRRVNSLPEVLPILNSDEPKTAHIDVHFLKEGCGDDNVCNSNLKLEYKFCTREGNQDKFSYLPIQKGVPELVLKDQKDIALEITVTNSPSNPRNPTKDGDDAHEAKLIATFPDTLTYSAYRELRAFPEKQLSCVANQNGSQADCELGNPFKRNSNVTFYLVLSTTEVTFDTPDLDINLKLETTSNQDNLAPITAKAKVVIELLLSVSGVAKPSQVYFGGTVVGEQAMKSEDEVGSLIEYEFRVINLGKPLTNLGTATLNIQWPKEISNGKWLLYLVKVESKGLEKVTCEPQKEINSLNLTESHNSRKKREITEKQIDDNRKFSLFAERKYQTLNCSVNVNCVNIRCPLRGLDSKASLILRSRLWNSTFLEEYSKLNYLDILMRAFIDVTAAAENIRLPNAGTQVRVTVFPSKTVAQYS
Sequence of recombinant human integrin α6β1 (P05556 21-728, chain 2 of 2): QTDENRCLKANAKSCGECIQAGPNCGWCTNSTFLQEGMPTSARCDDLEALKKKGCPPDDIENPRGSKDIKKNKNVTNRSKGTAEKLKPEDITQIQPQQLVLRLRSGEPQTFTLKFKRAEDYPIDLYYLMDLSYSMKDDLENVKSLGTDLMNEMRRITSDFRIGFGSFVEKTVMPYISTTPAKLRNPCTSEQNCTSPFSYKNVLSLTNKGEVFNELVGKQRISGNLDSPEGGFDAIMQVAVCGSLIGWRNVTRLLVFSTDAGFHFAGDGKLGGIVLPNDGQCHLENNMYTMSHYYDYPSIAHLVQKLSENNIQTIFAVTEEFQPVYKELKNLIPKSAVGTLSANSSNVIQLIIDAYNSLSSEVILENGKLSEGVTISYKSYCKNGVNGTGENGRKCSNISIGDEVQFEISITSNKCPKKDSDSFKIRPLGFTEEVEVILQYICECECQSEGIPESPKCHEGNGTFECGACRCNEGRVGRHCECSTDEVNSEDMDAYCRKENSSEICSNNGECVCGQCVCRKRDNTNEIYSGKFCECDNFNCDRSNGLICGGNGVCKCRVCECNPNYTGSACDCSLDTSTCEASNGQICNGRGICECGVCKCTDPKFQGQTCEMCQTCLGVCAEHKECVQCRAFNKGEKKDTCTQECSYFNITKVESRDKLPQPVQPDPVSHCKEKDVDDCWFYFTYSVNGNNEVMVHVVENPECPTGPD
Sequence of recombinant human integrin α6β4 (P23229 24-1050, chain 1 of 2): as the sequence (P23229 24-1050, chain 1 of 2) above
Sequence of recombinant human integrin α6β4 (P16144 28-710, chain 2 of 2): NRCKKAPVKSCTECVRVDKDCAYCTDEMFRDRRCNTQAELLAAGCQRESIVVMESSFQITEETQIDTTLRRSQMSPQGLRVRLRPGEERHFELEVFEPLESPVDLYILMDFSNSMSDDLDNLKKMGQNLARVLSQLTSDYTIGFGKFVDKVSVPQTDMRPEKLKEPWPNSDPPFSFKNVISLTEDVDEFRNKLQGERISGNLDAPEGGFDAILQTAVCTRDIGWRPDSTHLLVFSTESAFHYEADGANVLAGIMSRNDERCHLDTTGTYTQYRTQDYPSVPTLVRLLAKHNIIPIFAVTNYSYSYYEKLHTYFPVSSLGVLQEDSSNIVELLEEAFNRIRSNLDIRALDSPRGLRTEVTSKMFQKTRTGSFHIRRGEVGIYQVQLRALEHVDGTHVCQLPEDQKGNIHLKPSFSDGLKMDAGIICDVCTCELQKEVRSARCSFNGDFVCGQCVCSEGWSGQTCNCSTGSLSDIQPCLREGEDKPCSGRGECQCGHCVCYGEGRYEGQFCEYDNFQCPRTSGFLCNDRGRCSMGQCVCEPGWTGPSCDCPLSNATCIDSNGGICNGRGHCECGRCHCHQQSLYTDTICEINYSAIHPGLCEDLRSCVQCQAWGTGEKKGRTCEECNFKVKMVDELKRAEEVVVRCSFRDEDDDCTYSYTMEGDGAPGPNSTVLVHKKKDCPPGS

B1: IDA (nc28) (ssDNA)
DNA: GCCTGTTGTGAGCCTCCTAACCGTGCGTATTCGTACTGGAACTGATATCGATGTCCCCATGCTTATTCTTGTCTCCC
binds: all assays above
